The target in the experiment is HA-tagged NLRC4 (UniProt Q3UP24 1-1024). In words: co-IP.

Data on one molecule can be found in doi:10.1101/2022.10.05.511050 (bioRxiv, 2022).

Values joined by “and” are separate entries in the source; they are usually repeats but may differ in a detail not shown here. Equal entries are not always repeated.

Chain of HA-tagged NLRC4 (Q3UP24 whole entry): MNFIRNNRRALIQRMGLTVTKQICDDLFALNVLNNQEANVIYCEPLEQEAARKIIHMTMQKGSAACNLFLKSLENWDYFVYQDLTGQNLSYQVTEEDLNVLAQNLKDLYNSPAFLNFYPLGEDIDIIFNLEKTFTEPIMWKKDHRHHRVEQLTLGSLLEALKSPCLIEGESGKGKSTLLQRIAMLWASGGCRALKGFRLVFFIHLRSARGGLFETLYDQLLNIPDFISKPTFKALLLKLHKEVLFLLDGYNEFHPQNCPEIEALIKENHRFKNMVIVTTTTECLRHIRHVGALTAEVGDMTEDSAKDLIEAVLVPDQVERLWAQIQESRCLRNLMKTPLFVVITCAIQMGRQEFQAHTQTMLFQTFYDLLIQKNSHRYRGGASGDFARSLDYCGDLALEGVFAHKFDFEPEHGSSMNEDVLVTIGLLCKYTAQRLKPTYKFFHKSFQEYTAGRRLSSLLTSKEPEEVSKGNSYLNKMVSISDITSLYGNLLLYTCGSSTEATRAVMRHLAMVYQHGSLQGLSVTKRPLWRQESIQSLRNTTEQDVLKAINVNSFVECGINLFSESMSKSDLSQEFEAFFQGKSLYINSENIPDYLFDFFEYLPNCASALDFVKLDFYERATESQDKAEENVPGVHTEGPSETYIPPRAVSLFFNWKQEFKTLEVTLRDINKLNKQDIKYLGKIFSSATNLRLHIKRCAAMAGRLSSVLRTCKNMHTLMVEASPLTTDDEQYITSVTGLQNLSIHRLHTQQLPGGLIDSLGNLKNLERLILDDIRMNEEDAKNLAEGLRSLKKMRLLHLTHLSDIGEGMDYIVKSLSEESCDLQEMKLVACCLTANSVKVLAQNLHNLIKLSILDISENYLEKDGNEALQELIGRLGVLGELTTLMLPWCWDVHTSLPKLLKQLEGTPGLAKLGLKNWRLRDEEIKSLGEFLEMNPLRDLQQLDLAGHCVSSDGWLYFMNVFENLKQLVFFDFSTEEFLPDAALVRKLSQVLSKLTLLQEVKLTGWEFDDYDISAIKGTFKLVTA

B1: HA-tagged PELO (natural protein)
chain: MKLVRKDIEKDNAGQVTLVPEEPEDMWHTFNLVQVGDSLRASTIRKVQTESSTGSVGSNRVRTTLTLCVEAIDFDSQACQLRVKGTNIQENEYVKMGAYHTIELEPNRQFTLAKKQWDSVVLERIEQACDPAWSADVAAVVMQEGLAHVCLVTPSMTLTRAKVEVNIPRKRKGNCSQHDRALERFYEQVVQAIQRHINFEVVKCVLVASPGFVREQFCDYMFQQAVKTDNKVLLENRSKFLQVHASSGHKYSLKEALCDPTVASRLSDTKAAGEVKALDDFYKMLQHEPDRAFYGLKQVERANEALAIDTLLISDELFRHQDVATRSRYVRLVDSVKENAGTVRIFSSLHVSGEQLGQLTGVAAILRFPVPELSDQEDDSSSEED
B1: the “stoichiometry N” value is < 0.05 PELO per NLRC4 and ~0.05 PELO per NLRC4.
